Legend:
Test in all cases: bead flow cytometry
mouse FGFR3b-Fc = mouse FGFR3b-Fc (mouse, UniProt Q61851-2 21-371)
human FGFR3c-Fc = human FGFR3c-Fc (human, UniProt P22607 23-375)
human FGFR3b-Fc = human FGFR3b-Fc (human, UniProt P22607-2 23-377)
human FGFR1c-His = human FGFR1c-His (human, UniProt P11362 22-376)
mouse FGFR2c-Fc = mouse FGFR2c-Fc (mouse, UniProt P21803 22-377)
mouse FGFR1c-Fc = mouse FGFR1c-Fc (mouse, UniProt P16092 22-376)
human FGFR2c-His = human FGFR2c-His (human, UniProt P21802 22-377)
human FGFR2c-His, sequence (P21802 22-377): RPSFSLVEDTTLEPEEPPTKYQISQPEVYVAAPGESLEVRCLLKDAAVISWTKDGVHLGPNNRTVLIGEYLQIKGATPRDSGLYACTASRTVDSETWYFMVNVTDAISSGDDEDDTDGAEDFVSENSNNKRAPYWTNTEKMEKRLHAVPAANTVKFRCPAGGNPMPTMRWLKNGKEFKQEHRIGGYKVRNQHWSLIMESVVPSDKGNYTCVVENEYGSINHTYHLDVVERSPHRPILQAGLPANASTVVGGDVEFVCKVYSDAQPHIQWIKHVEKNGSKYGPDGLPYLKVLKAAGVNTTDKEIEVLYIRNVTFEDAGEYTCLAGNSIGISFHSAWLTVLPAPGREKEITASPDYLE

mouse FGFR3c-Fc = mouse FGFR3c-Fc (mouse, UniProt Q61851 21-369)

mouse FGFR1c-Fc, sequence (P16092 22-376): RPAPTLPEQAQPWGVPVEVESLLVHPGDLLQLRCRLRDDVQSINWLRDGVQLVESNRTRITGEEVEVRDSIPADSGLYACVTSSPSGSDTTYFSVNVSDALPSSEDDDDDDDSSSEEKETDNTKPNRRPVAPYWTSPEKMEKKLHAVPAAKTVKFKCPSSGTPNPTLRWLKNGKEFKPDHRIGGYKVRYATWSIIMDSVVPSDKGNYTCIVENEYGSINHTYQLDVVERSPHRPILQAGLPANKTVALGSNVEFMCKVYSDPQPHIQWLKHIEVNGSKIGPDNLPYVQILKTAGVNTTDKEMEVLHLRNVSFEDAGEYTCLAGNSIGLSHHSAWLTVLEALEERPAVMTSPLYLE
mouse FGFR2c-Fc, sequence (P21803 22-377): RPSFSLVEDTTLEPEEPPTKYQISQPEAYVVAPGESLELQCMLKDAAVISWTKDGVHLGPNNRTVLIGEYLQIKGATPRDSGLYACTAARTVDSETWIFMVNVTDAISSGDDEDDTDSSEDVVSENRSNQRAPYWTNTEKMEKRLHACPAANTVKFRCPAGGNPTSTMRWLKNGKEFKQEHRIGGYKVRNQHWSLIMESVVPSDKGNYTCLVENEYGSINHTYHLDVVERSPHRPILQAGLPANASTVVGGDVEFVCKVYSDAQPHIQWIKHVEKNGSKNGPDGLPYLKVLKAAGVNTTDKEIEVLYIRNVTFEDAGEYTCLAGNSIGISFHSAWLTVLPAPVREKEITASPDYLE
human FGFR1c-His, sequence (P11362 22-376): as the sequence (P16092 22-376) above, with A3S, V15A, L22F, V53A, R68Q, I71V, R128M counted along it

GCCGAUGGUUUUGUGGCCGUUUGAGGUUCCUACGGC (structured_RNA, 2'-fluoro C and U; 3' inverted dT (not in string)) [iR3]
Kd (mouse FGFR3b-Fc): ~62 nM
Kd (human FGFR3c-Fc): 55.5 ± 8.4 nM
Kd (human FGFR3b-Fc): ~48 nM
binding result (human FGFR1c-His): no binding
binding result (mouse FGFR2c-Fc): no binding
binding result (mouse FGFR1c-Fc): no binding
binding result (human FGFR2c-His): no binding
Kd (mouse FGFR3c-Fc): 36.6 ± 7.1 nM

Source: paper PMC6661505
